According to patent US20150239980A1 (NEOTOPE BOSCIENCES, published 2015):
Where a chain is given by its changes, count along the chain named.

T1: human MCAM (melanoma cell adhesion molecule) expressed on transfected CHO cells (human, UniProt P43121 24-646)
T1 construct: also called hMCAM; CD146
T1 chain: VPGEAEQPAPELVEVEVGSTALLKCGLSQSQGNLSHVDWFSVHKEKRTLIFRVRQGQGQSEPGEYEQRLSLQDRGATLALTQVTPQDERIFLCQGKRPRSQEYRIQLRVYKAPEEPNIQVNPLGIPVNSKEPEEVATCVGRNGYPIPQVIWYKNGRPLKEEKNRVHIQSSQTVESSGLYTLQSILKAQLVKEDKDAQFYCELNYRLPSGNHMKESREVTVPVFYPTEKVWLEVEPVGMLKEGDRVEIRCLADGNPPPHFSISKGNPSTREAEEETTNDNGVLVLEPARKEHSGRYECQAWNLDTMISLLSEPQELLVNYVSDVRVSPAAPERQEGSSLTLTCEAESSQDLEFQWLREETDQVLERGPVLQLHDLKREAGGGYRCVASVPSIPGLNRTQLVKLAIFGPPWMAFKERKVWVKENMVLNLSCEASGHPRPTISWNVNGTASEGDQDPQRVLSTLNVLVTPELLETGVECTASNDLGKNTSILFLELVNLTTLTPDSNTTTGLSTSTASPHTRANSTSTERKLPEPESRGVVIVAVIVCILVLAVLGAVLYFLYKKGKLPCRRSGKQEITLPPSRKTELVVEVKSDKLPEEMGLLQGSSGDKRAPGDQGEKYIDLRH

T2: recombinant hMCAM-His (human, UniProt P43121 24-559)
T2 construct: not shown: His tag
T2 chain: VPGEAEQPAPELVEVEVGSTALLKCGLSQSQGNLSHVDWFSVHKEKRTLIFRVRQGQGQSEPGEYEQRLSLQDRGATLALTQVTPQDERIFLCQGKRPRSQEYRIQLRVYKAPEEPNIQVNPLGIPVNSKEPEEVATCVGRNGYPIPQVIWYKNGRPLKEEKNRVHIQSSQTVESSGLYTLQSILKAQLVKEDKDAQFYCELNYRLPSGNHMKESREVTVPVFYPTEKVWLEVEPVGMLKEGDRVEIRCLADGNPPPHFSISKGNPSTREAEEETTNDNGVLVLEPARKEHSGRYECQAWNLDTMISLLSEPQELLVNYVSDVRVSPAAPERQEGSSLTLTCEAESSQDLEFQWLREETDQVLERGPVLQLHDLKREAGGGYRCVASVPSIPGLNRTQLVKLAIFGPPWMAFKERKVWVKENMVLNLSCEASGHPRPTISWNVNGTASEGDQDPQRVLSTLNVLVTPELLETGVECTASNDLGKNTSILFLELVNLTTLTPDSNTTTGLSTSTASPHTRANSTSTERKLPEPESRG

T3: mouse MCAM expressed on transfected CHO cells (mouse, UniProt Q8R2Y2 24-648)
T3 construct: whole, on cells; also called murine MCAM
T3 sequence (looked up): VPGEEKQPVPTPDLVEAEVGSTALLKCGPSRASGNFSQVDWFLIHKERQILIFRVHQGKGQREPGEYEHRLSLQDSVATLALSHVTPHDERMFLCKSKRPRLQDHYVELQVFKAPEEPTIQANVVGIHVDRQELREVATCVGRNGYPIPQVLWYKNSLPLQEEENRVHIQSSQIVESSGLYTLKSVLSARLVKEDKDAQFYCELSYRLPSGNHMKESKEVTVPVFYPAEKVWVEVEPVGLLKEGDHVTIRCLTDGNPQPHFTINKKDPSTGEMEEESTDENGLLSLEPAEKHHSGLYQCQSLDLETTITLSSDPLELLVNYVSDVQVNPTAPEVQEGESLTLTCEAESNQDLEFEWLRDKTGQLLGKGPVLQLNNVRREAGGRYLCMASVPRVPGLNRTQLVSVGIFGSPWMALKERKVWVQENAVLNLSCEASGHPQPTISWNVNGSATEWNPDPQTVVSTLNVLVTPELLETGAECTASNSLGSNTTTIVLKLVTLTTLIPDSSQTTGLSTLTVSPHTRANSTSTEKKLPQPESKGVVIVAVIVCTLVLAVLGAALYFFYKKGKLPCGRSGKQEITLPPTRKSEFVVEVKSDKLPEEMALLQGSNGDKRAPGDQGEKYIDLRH

T4: murine MCAM-Fc fusion protein (mouse, UniProt Q8R2Y2 24-563)
T4 construct: extracellular domain; produced in CHO cells; also called mouse MCAM-Fc; mouse MCAMhFc; not shown: fused to human IgG
T4 sequence (looked up): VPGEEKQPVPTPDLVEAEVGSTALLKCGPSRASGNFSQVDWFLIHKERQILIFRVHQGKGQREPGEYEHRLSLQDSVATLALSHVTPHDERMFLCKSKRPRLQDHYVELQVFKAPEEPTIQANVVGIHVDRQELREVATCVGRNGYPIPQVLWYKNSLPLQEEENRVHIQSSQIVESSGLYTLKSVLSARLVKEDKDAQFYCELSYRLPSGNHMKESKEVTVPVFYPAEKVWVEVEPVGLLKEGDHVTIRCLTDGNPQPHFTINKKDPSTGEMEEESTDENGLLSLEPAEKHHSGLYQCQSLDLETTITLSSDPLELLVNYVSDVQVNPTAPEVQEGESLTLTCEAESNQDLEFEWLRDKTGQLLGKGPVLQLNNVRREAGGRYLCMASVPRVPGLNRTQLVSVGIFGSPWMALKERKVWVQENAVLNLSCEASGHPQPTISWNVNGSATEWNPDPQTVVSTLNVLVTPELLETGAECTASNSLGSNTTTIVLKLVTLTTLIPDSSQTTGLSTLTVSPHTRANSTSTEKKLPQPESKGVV

T5: Ig2 domain (mouse, UniProt Q8R2Y2)
T5 construct: isolated domain 2; also called Murine MCAM domain 2 (Ig2) with human IgG Fc tag
T5 sequence (Fc fusion chain, looked up): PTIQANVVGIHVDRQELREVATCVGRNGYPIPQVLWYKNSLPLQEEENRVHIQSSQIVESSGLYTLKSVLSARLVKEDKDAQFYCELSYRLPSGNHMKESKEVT

B1: h2120_VH1 + h2120_VL3 (antibody, human IgG1, V domains shown)
VH: QVTLKESGPVLVKPTETLTLTCTVSGFSLTSNGVSWVRQPPGKALEWIAAISSGGTTYYNSAFKSRLTISRDTSKSQVVLTMTNMDPVDTATYYCARRYGYGWYFDFWGQGTLVTVSS
VL: DIQMTQSPSSLSASVGDRVTINCKASQNIYNSLAWYQQKPGKAPKVLIFNANSLQTGIPSRFSGSGSGTDFTLTISSLQPEDFATYYCQQFYSGYTFGQGTKLEIK
B2: h2120_VH2 + h2120_VL3 (antibody, human IgG1, V domains shown)
VH: B1 VH with T68S
VL: B1 VL
B3: anti-MCAM monoclonal antibody clone 17 (antibody, V domains shown)
VH: EVQLVESGGGLVQPGRSLKLSCAASGFTFSNYYMAWVRQAPTKGLEWVASISFEGNRNHYGDSVKGRITISRDNAKSTLYLQMTSLRPEDTATYYCARHRGYSTNFYHDVLDAWGQGALVTVSS
VL: DVQMTQSPSYLATSPGESVSISCKASKNIDTYLAWYQEKPGKTNKLLIYSGSTLQSGTPSRFSGSGSGTDFTLTIRNLESEDFAVYYCQQHNEYPLTFGSGTKLEIKR
notes: rat monoclonal raised against murine MCAM-Fc; also called anti-MCAM clone 17

How the values were obtained:
[1] = target: T1, human MCAM (melanoma cell adhesion …); assay: laminin/FACS on hMCAM CHO cells, competitor laminin 411; Expt#1; vs rodent 2120
Procedure: (§1) Following incubation for 30-45 minutes, the cells were washed and anti-laminin conjugated to AF650 (NovusBio) was added to detect the bound laminin. The cells were run on a flow cytometer to measure the laminin binding signal.

recombinant hMCAM-His [2] = target: T2, recombinant hMCAM-His; assay: competitive ELISA on hMCAM-His, competitor biotinylated rodent or chimeric 2120; vs rodent 2120
Procedure: (§2) ELISA plates were coated with recombinant hMCAM-His, and blocked with casein buffer to prevent non-specific binding. Biotinylated rodent or chimeric antibody was added at a subsaturating concentration, in the presence or absence of 3× increasing concentrations of unlabeled competitor (humanized antibody, rodent, or chimeric). After washing to remove unbound antibody, streptavidin HRP was added to allow detection of the biotinylated antibody. The ELISA was developed with TMB substrate and the OD450 was measured. The IC50 of the unlabeled competitor was determined using the GraphPad Prism5 software.

recombinant hMCAM-His [3] = target: T2, recombinant hMCAM-His; assay: summary of ForteBio, hMCAM-His; vs rodent 2120
Procedure: (§3) The affinities were measured using the ForteBio Octet Red. Anti-human Fc sensors were used to capture the humanized antibodies, and several concentrations of hMCAMHis analyte were used to determine the affinity using a 1:1 fitting model.

recombinant hMCAM-His [4] = target: T2, recombinant hMCAM-His; assay: competitive ELISA on hMCAM-His, competitor biotinylated rodent or chimeric 2120; Expt. #1; vs rodent 2120
Procedure: as §2

recombinant hMCAM-His [5] = target: T2, recombinant hMCAM-His; assay: ForteBio Octet Red, hMCAM-His analyte; Forte column 2; vs rodent 2120
Procedure: as §3

recombinant hMCAM-His [6] = target: T2, recombinant hMCAM-His; assay: ForteBio Octet Red, hMCAM-His analyte; Forte column 1; vs rodent 2120
Procedure: as §3

recombinant hMCAM-His [7] = target: T2, recombinant hMCAM-His; assay: ForteBio Octet Red, hMCAM-His analyte; Expt. #1; vs rodent 2120
Procedure: as §3

[8] = target: T1, human MCAM (melanoma cell adhesion …); assay: laminin/FACS on hMCAM CHO cells, competitor laminin 411; Expt#2; vs rodent 2120
Procedure: as §1

recombinant hMCAM-His [9] = target: T2, recombinant hMCAM-His; assay: ForteBio Octet Red, hMCAM-His analyte; Expt. #2; vs rodent 2120
Procedure: as §3

recombinant hMCAM-His [10] = target: T2, recombinant hMCAM-His; assay: competitive ELISA on hMCAM-His, competitor biotinylated rodent or chimeric 2120; Expt. #2; vs rodent 2120
Procedure: as §2

[11] = target: T3, mouse MCAM expressed on transfected CHO …; assay: flow cytometry, mouse MCAM transfected cells mixed with CFSE-labelled untransfected cells
Procedure: For the generation of antibodies capable of binding to murine MCAM, MCAM-Fc was generated by fusing the extracellular domain of murine MCAM to human IgG and produced in CHO cells using standard techniques. Lou/M rats were immunized with 100 μg of MCAM-Fc protein in CFA (1:1 volume). Rats were boosted two times at two week intervals with MCAM-Fc protein in incomplete Freund's adjuvant (IFA) (1:1 volume). Hybridomas were generated from immunized rats using standard protocols and clones were selected by Clonepix. CHO cells were transfected with the full length murine MCAM gene and selected for stable expression using neomycin and standard techniques. Parental CHO cells (MCAM negative) were fluorescently labeled with carboxyfluorescein succinimidyl ester (CFSE) using standard techniques and mixed at a 1:1 ratio with unlabeled MCAM transfected CHO cells. Hybridoma supernatants were incubated with this mixture of cells for 30 minutes and binding of potential MCAM specific antibodies was detected with a fluorescently labeled anti-rat secondary antibody (Jackson Immuno) by flow cytometry.

[12] = target: T4, murine MCAM-Fc fusion protein; assay: ForteBio Octet Red, anti-human IgG Fc (AHC) biosensors loaded with mouse MCAM-hFc proteins (5 ug/ml), dipped into antibody (5 ug/ml) or SP2 media
Excerpt: (§4) The following protocol was used: ForteBio Domain Mapping Protocol. ForteBio anti-human IgG Fc biosensors were used to immobilize various mouse MCAMhFc domains including full length mouse MCAMhFc protein on to biosensor surface. These sensors were dipped into either clone 15 or 17 MCAM specific antibody for detection of binding to these domains or full length protein. After loading these samples into a black 96 well plate, the Octet Red was programmed as follows: 60 seconds for baseline #1; 180 seconds for loading various domains; 60 seconds for baseline #2; 180 seconds for association of antibody to domain; and 240 seconds for dissociation of antibody from domain.
(§5) 1. Mouse MCAMhFc final concentration @ 5 ug/ml [0466] 2. Antibody clone 15 or 17 @ 5 ug/ml [0467] 3. ForteBio anti-human IgG Fc Capture (AHC) biosensors for kinetics experiments, cat#18-5060 [0468] 4. […] 5. ForteBio Octet Red machine [0470] 6. Fresh tissue culture medium, DMEM with 20% FCS, was used as buffer for dilution
(§6) For FIGS. 10A-B, clones 15 and 17 were tested against the following protein samples (all have human IgG Fc tag): Murine MCAM; Human Fc full length protein; Murine MCAM domain 1 (Ig1); Murine MCAM domain 2 (Ig2); and Murine MCAM domain 1 and 2 (Ig1-2A).

Ig2 domain = target: T5, Ig2 domain; assay: as above
Excerpt: as §4, §5, §6

Binder	fold over rodent (blocking, laminin/FACS) [1]	fold over rodent (competitive ELISA) (recombinant hMCAM-His [2])	fold reduction in affinity as measured by ForteBio (recombinant hMCAM-His [3])	fold over rodent (competitive ELISA) (recombinant hMCAM-His [4])	fold over rodent (Forte affinity) (recombinant hMCAM-His [5])	fold over rodent (Forte affinity) (recombinant hMCAM-His [6])	fold over rodent (Forte affinity) (recombinant hMCAM-His [7])	fold over rodent (blocking, laminin/FACS) [8]	fold over rodent (Forte affinity) (recombinant hMCAM-His [9])	fold over rodent (competitive ELISA) (recombinant hMCAM-His [10])	binding result [11]	binding result [12]	binding result (Ig2 domain)
B1	1.7 fold	1.8 fold	> 5 fold	2.23 fold	5.8 fold	5.9 fold	5.64 fold	2.8 fold	6.21 fold	2.42 fold			
B2			> 5 fold	1.93 fold			6.57 fold		6.43 fold	2.62 fold			
B3											binds	binds	no binding (tested: 5 ug/ml)
